Test results published in the Human Domainome abundance scans (Beltran et al. 2025).

B1: Zinc finger homeobox protein 3, residues 2147 to 2202; numbered along this chain, Q15911 (parent)
chain: RPRTRITDDQLRVLRQYFDINNSPSEEQIKEMADKSGLPQKVIKHWFRNTLFKERQ

Variants of: B1
Experiment: abundance fitness (aPCA) (normalised: wild type 0, dead -1); higher = more abundant; growth selection in yeast, the domain comes from the species named
Settings: Homo sapiens

Abundance fitness: each site, then its substitutions
D19: N -0.056; K 0.101; P -0.336; I -0.051; Q -0.207; G -0.125; H -0.034; V 0.014; C -0.094; M 0.044; R -0.031; T -0.02; E 0.022; S -0.015; W -0.131; F -0.171; L 0.032; Y 0.044
I20: L -0.036; D -0.087; N 0.008; H -0.001; G -0.045; A 0.009; T -0.052; E -0.228; P 0.036; M 0.02; W -0.184; C 0.1; F -0.037; K -0.081; Y -0.237; Q -0.019; V -0.074
E31: V -0.079; P -1.03; F -0.375; R -0.282; C -0.213; D 0.047; G -0.316; K -0.017; S -0.196; M -0.133; I -0.252; T -0.011; H -0.168; Y -0.448; L -0.259; A -0.151; Q -0.507; W -0.404; N -0.399
P24: S -1; T -0.585; F -0.746; D -0.8; I -0.652; Y -0.519; R -0.716; G -0.685; E -0.673; H -0.566; M -0.5; W -0.485; L -0.315; A -0.606; V -0.413; C -0.534; Q -0.747; N -0.873
I29: S -0.491; K -0.634; D -1.17; W -0.387; N -0.44; Q -0.225; L 0.09; E -0.334; C -0.279; T -0.109; P -0.838; G -0.827; Y -0.189; R -0.507; H -0.282; M -0.008; A -0.476
S25: T 0.012; N -0.196; Q -0.223; D -0.225; W -0.901; Y -0.382; E -0.111; A -0.14; P -0.191; M -0.523; I -0.361; G 0.024; F -0.623; V -0.356; C -0.244; R -0.202; K -0.045; H -0.537
K30: R -0.193; W -0.537; M -0.107; F -0.264; N -0.637; A -0.006; Q -0.323; P -0.679; H -0.161; D -0.155; I -0.133; T -0.061; C -0.217; G -0.188; L -0.239; S -0.205
N22: S 0.001; F -0.222; M 0.038; T 0.079; G -0.152; K -0.085; D -0.189; R 0.116; H 0.219; W -0.19; E -0.057; P -0.035; I -0.052; V -0.022; Y -0.076; Q 0.038; C 0.001; A 0.022; L -0.092
S23: Y -0.255; V -0.216; D 0.076; I -0.501; R -0.085; K -0.07; W -0.243; H 0.055; F -0.025; T 0.102; Q 0.004; P -0.21; C 0.081; A -0.033; L -0.149; N -0.14; E -0.123; G -0.268; M -0.035
E26: D 0.063; F -0.071; P 0.031; A -0.043; N -0.082; I 0.086; C 0.024; T -0.057; L -0.089; M -0.133; Y 0.004; H -0.001; G -0.192; R -0.093; W -0.265; Q 0.171; V -0.082; K -0.016
A33: R -0.163; V -0.186; C -0.158; N -0.21; Y -0.299; Q -0.185; M -0.083; E 0.038; S -0.054; G -0.212; L -0.511; D -0.879; H 0.254; K -0.357; W -0.556; P -0.908
Y17: R -0.369; M 0.083; W -0.181; Q -0.196; V -0.153; P -0.838; T -0.369; L -0.133; H -0.127; F 0.026; N -0.095; I -0.175; S -0.207
F18: W 0.022; R -0.069; M -0.15; V -0.333; L -0.137; T -0.109; N -0.451; G -0.263; C -0.161; A -0.187; K -0.039; Q -0.203; Y 0.016; H -0.259; S -0.1; D -0.419; E -0.555
N21: M -0.103; I -0.276; Y 0.014; C -0.14; L -0.256; E -0.005; F -0.421; H -0.01; Q -0.105; V -0.171; G -0.153; S -0.013; W -0.38; P -0.335; T 0.152; D -0.102; K -0.018; A -0.008
K35: P -0.998; G -0.402; R -0.175; F -0.336; E -0.168; W -0.346; A -0.279; N -0.138; H -0.536; S -0.222; D -0.297; Y -0.357; M -0.216; L -0.163; C -0.382; T -0.189; I -0.329; Q 0.014
Q28: H -0.058; N -0.171; I -0.033; C -0.423; E -0.102; Y -0.385; A -0.042; D -0.278; R -0.221; F -0.562; V -0.064; M -0.168; L -0.205; K -0.327; G -0.209; W -0.642
S36: A 0.045; E -0.14; F -0.099; C -0.156; D -0.669
D34: E 0.207; W -0.318; Q -0.112; F 0.013; I -0.088; N 0.082; R -0.086; P -0.582; K 0.02; L -0.123; Y -0.253; T 0.053; S -0.002; M -0.097; G -0.011; C -0.039; H 0.061; A 0.071; V -0.063
M32: R -1.18; S -0.882; T -0.584; Y -0.317; K -1.03; D -0.466; P -1.15; Q -0.774; N -1.08; A -0.338; V -0.164; C -0.407; F -0.383; L -0.181; E -0.987; I -0.191
E27: C -0.019; D 0.075; K 0.124; V 0.013; R -0.046; T -0.011; G -0.071; A 0.027; S 0.024; I -0.05; L -0.102; M -0.039; Q 0.034; W -0.341; Y -0.08; H -0.147; P -0.078
